Assay results reported in PMC8096850, “Structure of the full-length human Pannexin1 channel and insights into its role in pyroptosis” (Cell Discovery, 2021).

Tests used:
[1] = STED immunofluorescence, THP-1-derived macrophages; details: glycan lost; control: overexpressed WT hPANX1
[2] = biological target: the molecule itself; assay: cryo-EM structure; single-particle cryo-EM of purified hPANX1 at about 8 mg/ml in 20 mM Hepes pH 7.4, 150 mM NaCl, 0.1% digitonin; C7 symmetry; 3.15 Å

B1: human Pannexin1 (hPANX1): N255Q (protein)
parent chain: MAIAQLATEYVFSDFLLKEPTEPKFKGLRLELAVDKMVTCIAVGLPLLLISLAFAQEISIGTQISCFSPSSFSWRQAAFVDSYCWAAVQQKNSLQSESGNLPLWLHKFFPYILLLFAILLYLPPLFWRFAAAPHICSDLKFIMEELDKVYNRAIKAAKSARDLDMRDGACSVPGVTENLGQSLWEVSESHFKYPIVEQYLKTKKNSNNLIIKYISCRLLTLIIILLACIYLGYYFSLSSLSDEFVCSIKSGILRNDSTVPDQFQCKLIAVGIFQLLSVINLVVYVLLAPVVVYTLFVPFRQKTDVLKVYEILPTFDVLHFKSEGYNDLSLYNLFLEENISEVKSYKCLKVLENIKSSGQGIDPMLLLTNLGMIKMDVVDGKTPMSAEMREEQGNQTAELQGMNIDSETKANNGEKNARQRLLDSSC
In the case of B1, the localisation_or_trafficking [1] is reported as “changes”.

B2: full-length human Pannexin1 with a Strep-tag II inserted after V172 (natural protein, UniProt Q96RD7 1-426, looked up)
chain: MAIAQLATEYVFSDFLLKEPTEPKFKGLRLELAVDKMVTCIAVGLPLLLISLAFAQEISIGTQISCFSPSSFSWRQAAFVDSYCWAAVQQKNSLQSESGNLPLWLHKFFPYILLLFAILLYLPPLFWRFAAAPHICSDLKFIMEELDKVYNRAIKAAKSARDLDMRDGACSVPGVTENLGQSLWEVSESHFKYPIVEQYLKTKKNSNNLIIKYISCRLLTLIIILLACIYLGYYFSLSSLSDEFVCSIKSGILRNDSTVPDQFQCKLIAVGIFQLLSVINLVVYVLLAPVVVYTLFVPFRQKTDVLKVYEILPTFDVLHFKSEGYNDLSLYNLFLEENISEVKSYKCLKVLENIKSSGQGIDPMLLLTNLGMIKMDVVDGKTPMSAEMREEQGNQTAELQGMNIDSETKANNGEKNARQRLLDSSC
modifications: N-linked glycan at N255 (two N-acetylglucosamine and eight mannose)
notes: Pannexin1 (PANX1), Homo sapiens, full length; Homo-heptamer; Met1 is absent from the deposited hPANX1-MD model; The termini and the intracellular linker of the model rest on a locally sharpened map and MD flexible fitting; also called hPANX1; PANX1
In the case of B2, the “stoichiometry N” value [2] is reported as 7.
